The target in the data set is T1, Integrin beta3 (CD61, GP3A), overexpressed on A549-ITGB3-OE cells (Homo sapiens) (UniProt P05106).
T1 sequence: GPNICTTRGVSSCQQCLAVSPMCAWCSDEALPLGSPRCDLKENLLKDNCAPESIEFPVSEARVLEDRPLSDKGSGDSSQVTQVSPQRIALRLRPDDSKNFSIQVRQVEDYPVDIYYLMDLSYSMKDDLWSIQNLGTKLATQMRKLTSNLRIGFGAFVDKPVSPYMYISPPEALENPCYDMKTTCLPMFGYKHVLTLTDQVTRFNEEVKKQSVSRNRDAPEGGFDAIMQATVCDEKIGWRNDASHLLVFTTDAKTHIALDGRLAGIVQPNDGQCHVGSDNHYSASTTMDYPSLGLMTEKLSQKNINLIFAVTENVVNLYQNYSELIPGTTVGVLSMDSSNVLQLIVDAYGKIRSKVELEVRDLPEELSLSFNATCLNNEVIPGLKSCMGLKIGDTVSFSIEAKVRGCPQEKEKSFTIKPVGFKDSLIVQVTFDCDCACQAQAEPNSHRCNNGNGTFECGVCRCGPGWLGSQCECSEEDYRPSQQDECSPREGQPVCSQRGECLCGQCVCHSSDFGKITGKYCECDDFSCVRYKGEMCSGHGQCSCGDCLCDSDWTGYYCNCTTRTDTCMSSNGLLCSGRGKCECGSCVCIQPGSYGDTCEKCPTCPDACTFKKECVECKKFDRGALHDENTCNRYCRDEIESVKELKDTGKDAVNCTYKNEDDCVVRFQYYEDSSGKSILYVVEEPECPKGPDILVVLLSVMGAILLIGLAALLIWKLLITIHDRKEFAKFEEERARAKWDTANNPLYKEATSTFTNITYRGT
Description: flow cytometry. Conditions: live A549-ITGB3-OE cells, FAM label; PBS with 5 mM MgCl2, 4.5 g/L glucose, 100 ug/mL tRNA; 4 C, 30 min; pH not stated; pull-down on ice 30 min. (In general: A flow cytometer gives signals particle by particle.)

What is called Kd is the free concentration of one partner at which half of the binding sites on the other are occupied at equilibrium, for simple one-to-one binding. A high value points to lower affinity. For “TCCACGATGTAGGATCCACATGAGCGCTCCTGTTACCCTG [S10yh2]”, the Kd worked out at 0.0612 µM.

“TTCAGCACTCCACGCATAGCTCCACGATGTAGGATCCACATGAGCGCTCCTGTTACCCTGCCTATGCGTGCTACCGTGAA [S10]” returned a Kd of 0.0714 µM.
